The chains are these.
B1: GPC1 (other)
chain: DPASKSRSCGEVRQIYGAKGFSLSDVPQAEISGEHLRICPQGYTCCTSEMEENLANRSHAELETALRDSSRVLQAMLATQLRSFDDHFQHLLNDSERTLQATFPGAFGELYTQNARAFRDLYSELRLYYRGANLHLEETLAEFWARLLERLFKQLHPQLLLPDDYLDCLGKQAEALRPFGEAPRELRLRATRAFVAARSFVQGLGVASDVVRKVAQVPLGPECSRAVMKLVYCAHCLGVPGARPCPDYCRNVLKGCLANQADLDAEWRNLLDSMVLITDKFWGTSGVESVIGSVHTWLAEAINALQDNRDTLTAKVIQGCGNPKVNPQGPGPEEKRRRGKLAPRERPPSGTLEKLVSEAKAQLRDVQDFWISLPGTLCSEKMALSTASDDRCWNGMARGRYLPEVMGDGLANQINNPEVEVDITKPDMTIRQQIMQLKIMTNRLRSAYNGNDVDFQDASDDGSGSGSGDGCLDDLCSRKVSRKSSSSRTPLTHALPGLSEQEGQKTS
B2: anti-Glypican-1 antibody clone K090-01a042 (antibody, V domains shown)
VH: QVQLQQPGAELAKPGASVKMSCKASGYTFTRYWMHWVKQRPGQGLEWIGYINPSSGYTEYNQKFKDKATLTADKSSSTAYMQLSSLTSEDSAVYYCVRLGDYSYYFDYWGQGTTLTVSS
VL: DVVMTQTPLSLPVSLGDQASISCRSSQSIVHSNGNTYLEWYLQKPGQSPKLLIYKVSNRFSGVPDRFSGSGSGTDFTLKISRVEAEDLGVYYCFQGSHVPWTFGGGTKLELKR
B3: anti-Glypican-1 antibody clone K090-01a030 (antibody, V domains shown)
VH: QVQLQQSGAELVRPGTSVKMSCKAAGYTFTNYWIGWVKQRPGHGLEWIGDIYPGGGYTHYNEKFKGKATLTADTSSSTAYMQLSSLTSEDSAIYYCARERVYYDGSRYFDVWGAGTTVTVSS
VL: DIKMTQSPKFLPVSAGDRVTMTCKASQSVGNNVAWYQQKPGQSPKLLIYYASNRYTGVPDRFTGSGSGTDFTFTISSVQVEDLAVYFCQQHYSSPWTFGGGTKLEIKR
B4: anti-Glypican-1 antibody clone K090-01a002 (antibody, V domains shown)
VH: EVQLQQSGPELVKPGASVKISCKSSGYSFTRYYMHWVKHSPEKSLEWIGEINPSTGDTTYNQKFKAKATLTVDKSSSTAYMQLKSLTSEDSAVYYCAREKRDDGVLAYWGQGTLVTVSS
VL: B3 VL with K3Q, W96L, G100A, I106L
B5: anti-Glypican-1 antibody clone K090-01a017 (antibody, V domains shown)
VH: B3 VH with Q1E, A9G, I51L, Y103F
VL: B3 VL with D1S, K3V, S7T
B6: anti-Glypican-1 antibody clone K090-01a026 (antibody, V domains shown)
VH: B3 VH with Q3H, Y108F
VL: B3 VL with K3V, T5S
B7: anti-Glypican-1 antibody clone K090-01a009 (antibody, V domains shown)
VH: EVQLQQSGPELVKPGASVEISCKASGYSFTGYFMNWVKQSQGKSLEWIGRINPDNGDIFYNQKFKGKATLTVDKSSSTAHMELRSLTSEDSAVYYCARSWNWYFDVWGAGTTVTVSS
VL: DIQMTQSPASLSASVGETVTITCRASENIYSYLAWYQQKQGKSPQLLVYNAKTLAEGVPSRFSGSGSGTQFSLKINSLQPEDFGSYYCQHHYGTPYTFGSGTKLEIKR
B8: anti-Glypican-1 antibody clone K090-02b006 (antibody, V domains shown)
VH: EVQLVESGGGLVKPGGSRKLSCAASGFTFSDYGMHWVRQAPEKGLEWVAYISSGSSTIYYADTVKGRFTISRDNAKNTLFLQMTSLRSEDTAIYYCVRHSYYNYDIGGYYAMDYWGQGTSVTVSS
VL: DIVLTQSPSSLSASLGERVSLTCRASQEISGYLSWLQQKPDGTIKRLIYAASTLDSGVPKRFSGSRSGSDYSLTISSLESEDFADYYCLQYASYPLTFGAGTKLEIKR
B9: anti-Glypican-1 antibody clone K090-02a002 (antibody, V domains shown)
VH: B8 VH with Q3K, I93M, V97A, N103S, I106V, Y109D, A111V
VL: DIVMSQSPKFMSTSVGDRVSITCKASQDVGTAVAWYQQKPGQSPKLLIYWASTRHTGVPDRFTGSGSGTDFTLTISNVQSEDLADYFCQQYSSYPLTFGAGTKLEIKR
B10: anti-Glypican-1 antibody clone K090-02a010 (antibody, V domains shown)
VH: B8 VH with Q3K, S52N, E89G, I93M, V97A, N103S, I106V, Y109D, A111V
VL: B9 VL with M4L, S5T
B11: anti-Glypican-1 antibody clone K090-01a033 (antibody, V domains shown)
VH: B4 VH with E1Q, Q5K, S24A, R31G, H39Q, L106F
VL: DIVMSQSPKSMSMSVGERVALSCKASENVGTYVSWYQQKPEQSPKLLIYGASNRYTGVPDRFTGSGSATDFTLTISSVQAEDLADYYCGQSYSYPLTFGAGTKLELKR
B12: anti-Glypican-1 antibody clone K090-02a014 (antibody, V domains shown)
VH: EVQLQQSGPELVKPGASVKISCKASGYSFTGYYIHWVKQSPEKSLEWIGEINPSTGDITYNQKFKAKATLTVDKSSSTAYMQLKSLTSDDSAVYYCARERNYDRFAYWGQGTLVTVSS
VL: SIVMTQTPALMAASPGEKVTITCSVSSSISSSNLHWYQQKSETSPKPWIYGTSNLASGVPVRFSGSGSGTSYSLTISSMEAEDAATYYCQQWSSYPLTFGAGTKLEIKR

Positions count from the first letter of the chain named.

One assay concerns the target clone18. Put plainly: FACS.
Usually Kd stands for the free concentration of one partner at which half of the binding sites on the other are occupied at equilibrium, for simple one-to-one binding. Read a high Kd as weaker binding. B1 returned a Kd of 1.52 nM.

For the next assay, the target named is clone4. The experiment in a line: FACS. Background: Flow cytometry measures light scatter and fluorescence of single cells or particles in a stream.
For B1, the Kd came out at 0.804 nM.

In the next assay the target is T1, human Glypican-1 (UniProt P35052 24-530).
T1 chain: B1 chain
The experiment in a line: FACS.
B2 had a Kd of 6.36 nM.
Same read-out and setting: next, B3: 5.24 nM.
B4 showed a dissociation constant (Kd) of 0.638 nM.
The same measure, in the same setting: next, B5: 5.92 nM; B6: 11.2 nM; B7: 4.47 nM.
For B8, the dissociation constant Kd came to 3.2 nM.
Still for that read-out and setting: next, B9: 2.25 nM; B10: 2.25 nM; B11: 0.583 nM.
Still for that read-out and setting: next, B12: 1.72 nM.

The next assay has as its target T1, human Glypican-1. Put plainly: Biacore. A general note: SPR reads the build-up and loss of mass on a sensor chip optically.
In the case of B2, binding was put at a Kd of 16.2 nM.
For B3, binding was characterised by a dissociation constant (Kd) of 42.8 nM.
On the same count and under the same terms, next, B4: 4.99 nM; B5: 24.9 nM.
The same measure, in the same setting: next, B6: 12400 nM.
Still for that read-out and setting: next, B7: 26.9 nM; B8: 16.3 nM; B9: 1.12 nM.
Regarding B10, the dissociation constant Kd was 1.28 nM.
Same read-out and setting: next, B11: 8.9 nM; B12: 2.52 nM.

For another assay, the target named is clone18. The experiment in a line: Biacore.
Turning to B1, the Kd turned out to be 3.21 nM.

The target of the next assay is clone4. Put plainly: Biacore.
Molecule B1 gave a Kd of 3.21 nM.

The values are drawn from patent US20200308299A1 (published 2020).
